Legend:
[1] = target: T1, MMP-7-MMP-2 tandem substrate TAMRA-G-K-G-V-P-L-S-L-T-M-Ahx-G-P-L-G-V-R-G-C-CONH2 with 20 kDa PEG, on ligand (biotin) TSACs (Example 3) (not fully specified)
T1 chain: GKGVPLSLTMGPLGVRGC

[2] = target: T2, MMP-2 substrate G-K(TAMRA)-G-P-L-G-V-R-G-C-CONH2 with 20 kDa PEG, on ligand (biotin) TSACs (Example 3) (not fully specified)
T2 chain: GKGPLGVRGC

[3] = target: T3, MMP-7 substrate G-K(TAMRA)-G-V-P-L-S-L-T-M-G-C-CONH2 with 20 kDa PEG, on receptor (NeutrAvidin) TSACs (Example 3) (not fully specified)
T3 chain: GKGVPLSLTMGC

B1: catalytic domain of matrix metalloproteinase-7 (MMP-7; Biomol) (protein)
chain: YSLFPNSPKWTSKVVTYRIVSYTRDLPHITVDRLVSKALNMWGKEIPLHFRKVVWGTADIMIGFARGAHGDSYPFDGPGNTLAHAFAPGTGLGGDAHFDEDERWTDGSSLGINFLYAATHELGHSLGMGHSSDPNAVMYPTYGNGDPQNFKLSQDDIKGIQKLYGKRSNSRKK
hydrodynamic radius increase in DLS [1]: Hydrodynamic radii increased more than 5-fold in the presence of either enzyme or both enzymes | TSAC assembly in DLS [2]: Addition of 0.4 µg MMP-2 actuates TSAC assembly, while 0.4 µg MMP-7 or no enzyme is insufficient | TSAC assembly in DLS [3]: addition of 0.4 µg MMP-7 induces assembly, while 0.4 µg MMP-2 cannot
